One block for each binder: values may come before it.
Legend:
[1] = biological target: T1, wild type full-length human TIGIT expressed on cells (human, UniProt Q495A1 22-244); test: flow cytometry, human TIGIT CHO cells, geomean of 2 experiments
T1 construct: whole, on cells; also called human TIGIT-CHO; human TIGIT CHO cells
T1 sequence (looked up): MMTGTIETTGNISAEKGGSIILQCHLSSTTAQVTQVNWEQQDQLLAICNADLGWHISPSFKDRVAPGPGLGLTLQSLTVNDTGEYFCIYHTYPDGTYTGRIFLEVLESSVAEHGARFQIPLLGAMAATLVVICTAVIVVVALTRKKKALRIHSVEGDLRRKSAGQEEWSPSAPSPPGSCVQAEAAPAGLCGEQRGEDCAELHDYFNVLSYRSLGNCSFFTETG
Method: For the antibody binding assay, a frozen aliquot of human TIGIT-CHO cells was thawed at 37° C. and then transferred to a tube containing DPBS supplemented with 0.5% Bovine Serum Albumin and 0.05% Sodium Azide (FACS Buffer). Cells were centrifuged at 300 g for five minutes. The supernatant was discarded, and cells resuspended in FACS buffer were seeded in a 96-well U-bottom tissue culture plate at a density of 2×10⁵ cells per well in 50 μL. In a separate microplate, a 2× concentrated intermediate stock of each antibody was prepared. Antibodies were serially diluted 1-to-4 in FACS buffer. A total of 11 working dilutions ranging from 60 μg/mL to 0.000057 μg/mL were prepared. Fifty microlitres of each dilution were then transferred to the microplate containing human TIGIT-CHO cells. The cells were then incubated for 45 minutes at 4° C. […] After a 30-minute incubation on ice, the cells were washed twice with cold FACS Buffer, and the cells were analyzed by flow cytometry (BD LSR Fortessa Flow Cytometer). The data were analyzed using the FlowJo software by sequentially gating the FSC-A vs. SSC-A, and SSC-H vs. SSC-A. Mean fluorescence intensity (MFI) values for PE were calculated, and the data were plotted by GraphPad Prism software.

[2] = biological target: CD8+ T cells (CD3-stimulated; Day 4); test: flow cytometry on activated primary human T cells, gated CD8+, donor 2; PE anti-human IgG detection
Method: A total of 8 dilutions ranging from 50 μg/mL to 0.000005 μg/mL were prepared. After four days, the sample plates were centrifuged for two minutes at 2000 rpm, and supernatants were discarded. Samples were blocked with FcγR Block prepared in FACs buffer at 5 μL per 100 μL test for 10 minutes. Sample plates were then centrifuged for two minutes at 2000 rpm, and the supernatant was discarded. The cells were then re-suspended in 100 μL of anti-TIGIT×CD96 multispecific molecule or a relevant isotype control at the concentrations shown in FIGS. 26A-26F. Sample plates were incubated for 30 minutes at 4° C. Cells were washed by addition of cold sample buffer and centrifuged for two minutes at 2000 rpm, and the supernatant was discarded. This wash was repeated once.
Cells were then resuspended in a cocktail of fluorescently labeled antibodies. A cocktail of fluorescently labeled antibodies sufficient for all samples was prepared in FACs buffer. 100 μL of antibody per well was then added to a round-bottom 96-well plate. […]
Antibody binding was measured by flow cytometry using a BD LSR Fortessa Flow Cytometer. […] 100,000 events were recorded for each sample. Samples were analyzed by sequentially gating on the following populations: FSC-A vs. SSC-A, FSC-H vs. FSC-A, SSC-A vs. LIVE/DEAD, CD4 vs. CD8, and SSC vs. CD25. Mean fluorescence intensity (MFI) was calculated.

[3] = biological target: T2, wild type full-length cynomolgus monkey TIGIT expressed on CHO cells (cynomolgus monkey, UniProt A0A7N9I9V4 89-312); test: flow cytometry, cynomolgus TIGIT CHO cells, geomean of 2 experiments
T2 construct: whole, on cells; also called cynomolgus TIGIT-CHO cells
T2 sequence (A0A7N9I9V4 entry or part of it): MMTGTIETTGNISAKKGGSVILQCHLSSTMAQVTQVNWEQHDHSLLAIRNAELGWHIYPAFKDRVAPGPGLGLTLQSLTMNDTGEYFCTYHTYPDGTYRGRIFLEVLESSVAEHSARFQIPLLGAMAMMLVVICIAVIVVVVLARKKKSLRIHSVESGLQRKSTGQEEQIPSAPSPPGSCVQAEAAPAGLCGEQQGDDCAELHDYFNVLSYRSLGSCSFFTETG

EC50 [1]: 0.033 µg/mL
EC50 (read off the curve) [2]: ~0.3 µg/mL
B1: anti-TIGIT×CD96 multispecific molecule BA127 (bispecific antibody, human IgG1, kappa, lambda)
heavy 1: QVQLVQSGAEVKKPGASVKVSCKASGYTFTTYALHWVRQAPGQRLEWMGWINTGSGDTKYSQKFQGRVTITRDTSASTAYMELSSLRSEDTAVYYCARSLGVYYGMDVWGQGTLVTVSSASTKGPSVFPLAPSSKSTSGGTAALGCLVKDYFPEPVTVSWNSGALTSGVHTFPAVLQSSGLYSLSSVVTVPSSSLGTQTYICNVNHKPSNTKVDKRVEPKSCDKTHTCPPCPAPELLGGPDVFLFPPKPKDTLMISRTPEVTCVVVDVSHEDPEVKFNWYVDGVEVHNAKTKPREEQYNSTYRVVSVLTVLHQDWLNGKEYKCKVSNKALPAPIEKTISKAKGQPREPQVYTLPPSREEMTKNQVSLSCAVKGFYPSDIAVEWESNGQPENNYKTTPPVLDSDGSFFLVSKLTVDKSRWQQGNVFSCSVMHEALHNHYTQKSLSLSPG
light 1: not shown
heavy 2: EVQLVQSGAEVKKPGSSVKVSCKASGYTFASYGISWVRQAPGQGLEWMGGITPFFNRVDVAEKFQGRVTITADKSTSTAYIELSSLRSEDTAVYYCARDLRRGGVGDAFDIWGRGTLVTVSSASTKGPSVFPLAPSSKSTSGGTAALGCLVKDYFPEPVTVSWNSGALTSGVHTFPAVLQSSGLYSLSSVVTVPSSSLGTQTYICNVNHKPSNTKVDKRVEPKSCDKTHTCPPCPAPELLGGPDVFLFPPKPKDTLMISRTPEVTCVVVDVSHEDPEVKFNWYVDGVEVHNAKTKPREEQYNSTYRVVSVLTVLHQDWLNGKEYKCKVSNKALPLPEEKTISKAKGQPREPQVYTLPPSREEMTKNQVSLWCLVKGFYPSDIAVEWESNGQPENNYKTTPPVLDSDGSFFLYSKLTVDKSRWQQGNVFSCSVMHEALHNHYTQKSLSLSPG
light 2: QSALTQPRSVSGSPGQSVTISCTGTSPDVGSHAYRSWYQQHPGKAPKLMIYEVSYRPSGVSNRFSGSKSGNTASLTISGLQAEDEADYYCSSYPPSSATVFGAGTKLTVLGQPKAAPSVTLFPPSSEELQANKATLVCLISDFYPGAVTVAWKADSSPVKAGVETTTPSKQSNNKYAASSYLSLTPEQWKSHRSYSCQVTHEGSTVEKTVAPTEC
notes: Anti-CD96 arm = BA139, anti-TIGIT arm = BA150; copies: 1 + 1 + 1 + 1

EC50 [3]: 0.0534 µg/mL
B2: anti-TIGIT monospecific antibody BA148 (antibody, human IgG1, lambda)
heavy: EVQLVQSGAEVKKPGSSVKVSCKASGYTFASYGISWVRQAPGQGLEWMGGITPFFNRVDVAEKFQGRVTITADKSTSTAYIELSSLRSEDTAVYYCARDLRRGGVGDAFDIWGRGTLVTVSSASTKGPSVFPLAPSSKSTSGGTAALGCLVKDYFPEPVTVSWNSGALTSGVHTFPAVLQSSGLYSLSSVVTVPSSSLGTQTYICNVNHKPSNTKVDKRVEPKSCDKTHTCPPCPAPELLGGPDVFLFPPKPKDTLMISRTPEVTCVVVDVSHEDPEVKFNWYVDGVEVHNAKTKPREEQYNSTYRVVSVLTVLHQDWLNGKEYKCKVSNKALPLPEEKTISKAKGQPREPQVYTLPPSREEMTKNQVSLTCLVKGFYPSDIAVEWESNGQPENNYKTTPPVLDSDGSFFLYSKLTVDKSRWQQGNVFSCSVMHEALHNHYTQKSLSLSPGK
light: B1 light 2
notes: IgG1; also called anti-TIGIT IgG1 antibody BA148

Reference: US20240141039A1 (AGENUS, published 2024)
